Assay results as given in PMC4786428, “Recombinational branch migration by the RadA/Sms paralog of RecA in Escherichia coli”.

Target: T1, RadA S372A (Escherichia coli, UniProt P24554 1-460, S372A)
T1 sequence: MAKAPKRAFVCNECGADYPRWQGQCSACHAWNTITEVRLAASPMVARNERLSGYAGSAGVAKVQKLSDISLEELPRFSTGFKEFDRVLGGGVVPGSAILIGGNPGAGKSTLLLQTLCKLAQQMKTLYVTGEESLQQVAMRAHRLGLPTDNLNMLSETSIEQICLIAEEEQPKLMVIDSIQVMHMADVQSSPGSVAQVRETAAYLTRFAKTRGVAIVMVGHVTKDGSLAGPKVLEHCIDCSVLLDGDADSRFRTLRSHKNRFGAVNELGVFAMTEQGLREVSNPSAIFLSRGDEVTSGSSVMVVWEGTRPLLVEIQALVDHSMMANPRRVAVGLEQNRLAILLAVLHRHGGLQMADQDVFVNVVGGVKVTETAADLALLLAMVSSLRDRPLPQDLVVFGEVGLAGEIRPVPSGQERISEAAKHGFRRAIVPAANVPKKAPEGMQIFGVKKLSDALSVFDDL
Test: EMSA; 1 mM ADP; retains DNA binding; 50 mM Tris-HCl pH 7.5, 10 mM MgCl2, 0.1 mM EDTA, 75 mM NaCl, 5 mM DTT, 100 ug/ml BSA, 1 mM nucleotide, 100 fmol DNA, 37 C for 20-30 min; 6% TBE polyacrylamide gel at room temperature
Settings: protein: recombinant; tags: eXact tag cleaved; 2 extra N-terminal residues Thr-Ser remain; chain copies: 6

Does TTTTTTTTTTTTTTTTTTTTTTTTTTTTTT (ssDNA) [poly(dT)30] bind?
Result: binds
